Target: T1, YanA86D (monomer) (UniProt Q01842 1-499, A86D)
T1 sequence: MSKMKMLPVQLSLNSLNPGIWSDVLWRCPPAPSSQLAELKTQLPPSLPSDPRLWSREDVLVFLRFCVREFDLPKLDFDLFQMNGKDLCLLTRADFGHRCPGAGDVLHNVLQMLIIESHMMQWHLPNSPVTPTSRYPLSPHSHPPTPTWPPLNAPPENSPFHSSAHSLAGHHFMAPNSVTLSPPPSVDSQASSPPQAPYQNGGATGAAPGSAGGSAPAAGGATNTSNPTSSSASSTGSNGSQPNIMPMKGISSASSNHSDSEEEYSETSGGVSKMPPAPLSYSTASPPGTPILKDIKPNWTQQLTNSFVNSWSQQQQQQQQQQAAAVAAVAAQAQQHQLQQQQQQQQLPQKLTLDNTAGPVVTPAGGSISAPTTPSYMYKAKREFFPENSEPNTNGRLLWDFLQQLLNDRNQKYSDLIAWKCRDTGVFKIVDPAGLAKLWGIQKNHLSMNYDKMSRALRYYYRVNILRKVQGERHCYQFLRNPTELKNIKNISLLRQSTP
Assay: competition

B1: MHE ETS site 6 (dsDNA)
DNA 1: AAATGCTTAAACAGGGAAATCGTCTTGG
DNA 2: CCAAGACGATTTCCCTGTTTAAGCATTT
B1: no binding.
